The target of the data set is MaRAP2-4 (Mentha arvensis, UniProt A0A1Z2X6Y3 1-315). The experiment in a line: EMSA; DIG Gel Shift Kit 2nd Generation (Roche), manufacturer's protocol; buffer, pH and temperature not stated. The conditions noted are these: protein: recombinant; tags: GST (pGEX-4T2); label: DIG.
MaRAP2-4, sequence (A0A1Z2X6Y3 entry or part of it): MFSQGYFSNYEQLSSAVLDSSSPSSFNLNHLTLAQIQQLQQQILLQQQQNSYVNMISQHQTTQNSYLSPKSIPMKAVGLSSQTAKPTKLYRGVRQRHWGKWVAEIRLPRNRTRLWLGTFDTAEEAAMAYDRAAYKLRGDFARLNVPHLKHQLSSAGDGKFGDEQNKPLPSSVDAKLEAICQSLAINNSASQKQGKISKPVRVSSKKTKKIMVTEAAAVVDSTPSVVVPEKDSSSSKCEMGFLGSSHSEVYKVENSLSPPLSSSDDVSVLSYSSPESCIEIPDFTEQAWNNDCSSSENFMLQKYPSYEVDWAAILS

B1: AtSWEET10 promoter probe with DRE only (dsDNA)
DNA 1: AATTTCGCATGCCGACATCAATGTGCGCACAACA
DNA 2: TGTTGTGCGCACATTGATGTCGGCATGCGAAATT
Turning to B1, the binding result was “binds”.

B2: AtSWEET10 promoter probe with overlapping DRE and GCC (dsDNA)
DNA 1: ATGATTCACGGCCGCCGACGCCGTTCGTTACCA
DNA 2: TGGTAACGAACGGCGTCGGCGGCCGTGAATCAT
With B2, the binding result is “binds”.

For the origin of these results see publication PMC5785340, “MaRAP2‐4, a waterlogging‐responsive ERF from Mentha, regulates bidirectional sugar transporter AtSWEET10 to modulate stress response in Arabidopsis”.
